Measured values as given in US20210292396A1.

Experiments:
Assay in all cases: cell-based or functional assay
[1] = biological target: Env of HIV isolate 0013095-2.11 (clade C) (HIV)
[2] = biological target: Env of HIV isolate 3873.v1.c24 (clade C) (HIV)
[3] = biological target: Env of HIV isolate 57128.vrc15 (clade D) (HIV)
[4] = biological target: Env of HIV isolate 6322.v4.c1 (clade C) (HIV)
[5] = biological target: Env of HIV isolate 89.6.DG (clade B) (HIV)
[6] = biological target: Env of HIV isolate ADA.DG (clade B) (HIV)
[7] = biological target: Env of HIV isolate BB201.B42 (clade A) (HIV)
[8] = biological target: Env of HIV isolate BJOX009000.02.4 (clade AE) (HIV)
[9] = biological target: Env of HIV isolate BJOX025000.01.1 (clade AE) (HIV)
[10] = biological target: Env of HIV isolate BR025.9 (clade C) (HIV)
[11] = biological target: Env of HIV isolate Bal.01 (clade B) (HIV)
[12] = biological target: Env of HIV isolate CAP45.G3 (clade C) (HIV)
[13] = biological target: Env of HIV isolate CNE21 (clade BC) (HIV)
[14] = biological target: Env of HIV isolate CNE31 (clade C) (HIV)
[15] = biological target: Env of HIV isolate KER2008.12 (clade A) (HIV)
[16] = biological target: Env of HIV isolate KER2018.11 (clade A) (HIV)
[17] = biological target: Env of HIV isolate MN.3 (clade B) (HIV)
[18] = biological target: Env of HIV isolate Q168.a2 (clade AD) (HIV)
[19] = biological target: Env of HIV isolate QH0692.42 (clade B) (HIV)
[20] = biological target: Env of HIV isolate REJO.67 (clade B) (HIV)
[21] = biological target: Env of HIV isolate TV1.29 (clade C) (HIV)
[22] = biological target: Env of HIV isolate TZA125.17 (clade C) (HIV)
[23] = biological target: Env of HIV isolate TZBD.02 (clade C) (HIV)
[24] = biological target: Envelope protein of SIVmac251.30.SG3 (clade NA)
[25] = biological target: HIV Env of isolate 25925-2.22 (HIV)
[26] = biological target: HIV Env of isolate 3326.v4.c3 (HIV)
[27] = biological target: HIV Env of isolate 3415.v1.c1 (HIV)
[28] = biological target: HIV Env of isolate 6101.10 (HIV)
[29] = biological target: HIV Env of isolate 6405.v4.c34 (HIV)
[30] = biological target: HIV Env of isolate 6535.3 (HIV)
[31] = biological target: HIV Env of isolate C1080.c3 (HIV)
[32] = biological target: HIV Env of isolate CE703010217.B6 (HIV)
[33] = biological target: HIV Env of isolate CNE14 (HIV)
[34] = biological target: HIV Env of isolate CNE21 (HIV)
[35] = biological target: HIV Env of isolate CNE40 (HIV)
[36] = biological target: HIV Env of isolate CNE53 (HIV)
[37] = biological target: HIV Env of isolate CNE56 (HIV)
[38] = biological target: HIV Env of isolate CNE58 (HIV)
[39] = biological target: HIV Env of isolate CNE59 (HIV)
[40] = biological target: HIV Env of isolate DU151.02 (HIV)
[41] = biological target: HIV Env of isolate DU422.01 (HIV)
[42] = biological target: HIV Env of isolate JRFL.JB (HIV)
[43] = biological target: HIV Env of isolate MN.3 (HIV)
[44] = biological target: HIV Env of isolate P1981.C5.3 (HIV)
[45] = biological target: HIV Env of isolate Q168.a2 (HIV)
[46] = biological target: HIV Env of isolate Q769.d22 (HIV)
[47] = biological target: HIV Env of isolate R1166.c1 (HIV)
[48] = biological target: HIV Env of isolate RHPA.7 (HIV)
[49] = biological target: HIV Env of isolate T250-4 (HIV)
[50] = biological target: HIV Env of isolate T257-31 (HIV)
[51] = biological target: HIV Env of isolate TH966.8 (HIV)
[52] = biological target: HIV Env of isolate TZA125.17 (HIV)
[53] = biological target: HIV Env of isolate TZBD.02 (HIV)
[54] = biological target: HIV Env of isolate ZM249.1 (HIV)

Substance: PGT121 (antibody)
- IC50, pseudovirus neutralization [1]: > 50 µg/mL
- IC50, pseudovirus neutralization [2]: 0.045 µg/mL
- IC50, pseudovirus neutralization [3]: 1.27 µg/mL
- IC50, pseudovirus neutralization [4]: > 50 µg/mL
- IC50, pseudovirus neutralization [5]: 0.0337 µg/mL
- IC50, pseudovirus neutralization [6]: 0.0333 µg/mL
- IC50, pseudovirus neutralization [7]: 0.00933 µg/mL
- IC50, pseudovirus neutralization [8]: 0.751 µg/mL
- IC50, pseudovirus neutralization [9]: > 50 µg/mL
- IC50, pseudovirus neutralization [10]: 0.00967 µg/mL
- IC50, pseudovirus neutralization [11]: 0.0113 µg/mL
- IC50, pseudovirus neutralization [12]: 0.866 µg/mL
- IC50, pseudovirus neutralization [13]: 0.0143 µg/mL
- IC50, pseudovirus neutralization [14]: 0.654 µg/mL
- IC50, pseudovirus neutralization [15]: 0.553 µg/mL
- IC50, pseudovirus neutralization [16]: > 50 µg/mL
- IC50, pseudovirus neutralization [17]: > 50 µg/mL
- IC50, pseudovirus neutralization [18]: > 50 µg/mL
- IC50, pseudovirus neutralization [19]: 0.972 µg/mL
- IC50, pseudovirus neutralization [20]: 1.96 µg/mL
- IC50, pseudovirus neutralization [21]: 0.146 µg/mL
- IC50, pseudovirus neutralization [22]: 1.45 µg/mL
- IC50, pseudovirus neutralization [23]: 0.0257 µg/mL
- IC50, pseudovirus neutralization [24]: > 50 µg/mL
- IC80, pseudovirus neutralization [25]: 0.0867 µg/mL
- IC80, pseudovirus neutralization [26]: > 50 µg/mL
- IC80 [27]: > 50 µg/mL
- IC80 [28]: 0.0353 µg/mL
- IC80, pseudovirus neutralization [29]: 0.136 µg/mL
- IC80 [30]: 0.0217 µg/mL
- IC80 [31]: > 50 µg/mL
- IC80, pseudovirus neutralization [32]: 0.0173 µg/mL
- IC80 [33]: 0.0243 µg/mL
- IC80, pseudovirus neutralization [34]: 0.0383 µg/mL
- IC80, pseudovirus neutralization [35]: 1.21 µg/mL
- IC80, pseudovirus neutralization [36]: 0.0723 µg/mL
- IC80 [37]: > 50 µg/mL
- IC80, pseudovirus neutralization [38]: > 50 µg/mL
- IC80 [39]: > 50 µg/mL
- IC80, pseudovirus neutralization [40]: 0.0283 µg/mL
- IC80, pseudovirus neutralization [41]: 0.176 µg/mL
- IC80 [42]: 0.107 µg/mL
- IC80 [43]: > 50 µg/mL
- IC80, pseudovirus neutralization [44]: 0.013 µg/mL
- IC80 [45]: > 50 µg/mL
- IC80 [46]: > 50 µg/mL
- IC80 [47]: > 50 µg/mL
- IC80 [48]: 0.093 µg/mL
- IC80 [49]: 0.0123 µg/mL
- IC80 [50]: > 50 µg/mL
- IC80 [51]: > 50 µg/mL
- IC80, pseudovirus neutralization [52]: 9.43 µg/mL
- IC80, pseudovirus neutralization [53]: 0.137 µg/mL
- IC80, pseudovirus neutralization [54]: > 50 µg/mL
